B1: synthetic peptide NKDIL (peptide)
peptide: NKDIL
notes: Made by solid phase synthesis; also called 2nd fas-1 domain-derived synthetic peptide; NKDIL (a.a. 354-358)
B2: synthetic peptide EPDIM (peptide)
peptide: EPDIM
notes: Made by solid phase synthesis; also called 4th fas-1 domain-derived synthetic peptide; EPDIM (a.a. 615-619)

Experiments:
α3β1 integrin [1] = target: T1, α3β1 integrin (UniProt P26006 33-1051; P05556 21-798); assay: HCE cell adhesion to coated peptide (100 µM) with function-blocking anti-integrin mAbs
T1 construct: whole, on cells; Never used as a purified protein; It is always the receptor on HCE cells in adhesion assays; also called integrin α3β1; functional receptor for βig-h3
T1 sequence (P26006 33-1051, chain 1 of 2): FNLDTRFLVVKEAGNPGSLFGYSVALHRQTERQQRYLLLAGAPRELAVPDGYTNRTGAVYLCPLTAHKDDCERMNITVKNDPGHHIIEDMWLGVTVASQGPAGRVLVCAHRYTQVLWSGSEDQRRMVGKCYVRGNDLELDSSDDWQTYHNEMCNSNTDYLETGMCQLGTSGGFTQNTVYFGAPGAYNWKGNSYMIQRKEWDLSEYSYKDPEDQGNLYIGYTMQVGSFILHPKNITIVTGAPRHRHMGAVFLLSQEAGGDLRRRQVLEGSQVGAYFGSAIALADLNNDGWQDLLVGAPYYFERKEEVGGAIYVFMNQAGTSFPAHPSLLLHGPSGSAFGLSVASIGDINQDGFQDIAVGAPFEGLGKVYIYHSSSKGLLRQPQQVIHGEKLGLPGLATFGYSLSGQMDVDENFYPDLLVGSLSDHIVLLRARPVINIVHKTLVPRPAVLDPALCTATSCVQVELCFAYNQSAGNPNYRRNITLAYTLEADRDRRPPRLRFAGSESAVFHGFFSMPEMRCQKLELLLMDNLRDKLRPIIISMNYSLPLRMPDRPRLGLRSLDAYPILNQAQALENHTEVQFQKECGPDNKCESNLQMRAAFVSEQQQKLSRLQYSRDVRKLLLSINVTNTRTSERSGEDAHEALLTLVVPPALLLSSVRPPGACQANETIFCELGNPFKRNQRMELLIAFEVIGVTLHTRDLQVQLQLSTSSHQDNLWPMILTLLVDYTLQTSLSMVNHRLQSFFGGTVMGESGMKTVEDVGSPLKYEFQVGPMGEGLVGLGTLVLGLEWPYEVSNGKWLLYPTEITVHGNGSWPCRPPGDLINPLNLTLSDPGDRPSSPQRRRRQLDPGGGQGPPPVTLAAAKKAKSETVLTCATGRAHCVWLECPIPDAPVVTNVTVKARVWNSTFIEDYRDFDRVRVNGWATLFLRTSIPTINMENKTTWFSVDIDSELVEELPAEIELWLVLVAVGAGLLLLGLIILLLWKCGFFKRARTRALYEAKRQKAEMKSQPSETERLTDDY
T1 sequence (P05556 21-798, chain 2 of 2): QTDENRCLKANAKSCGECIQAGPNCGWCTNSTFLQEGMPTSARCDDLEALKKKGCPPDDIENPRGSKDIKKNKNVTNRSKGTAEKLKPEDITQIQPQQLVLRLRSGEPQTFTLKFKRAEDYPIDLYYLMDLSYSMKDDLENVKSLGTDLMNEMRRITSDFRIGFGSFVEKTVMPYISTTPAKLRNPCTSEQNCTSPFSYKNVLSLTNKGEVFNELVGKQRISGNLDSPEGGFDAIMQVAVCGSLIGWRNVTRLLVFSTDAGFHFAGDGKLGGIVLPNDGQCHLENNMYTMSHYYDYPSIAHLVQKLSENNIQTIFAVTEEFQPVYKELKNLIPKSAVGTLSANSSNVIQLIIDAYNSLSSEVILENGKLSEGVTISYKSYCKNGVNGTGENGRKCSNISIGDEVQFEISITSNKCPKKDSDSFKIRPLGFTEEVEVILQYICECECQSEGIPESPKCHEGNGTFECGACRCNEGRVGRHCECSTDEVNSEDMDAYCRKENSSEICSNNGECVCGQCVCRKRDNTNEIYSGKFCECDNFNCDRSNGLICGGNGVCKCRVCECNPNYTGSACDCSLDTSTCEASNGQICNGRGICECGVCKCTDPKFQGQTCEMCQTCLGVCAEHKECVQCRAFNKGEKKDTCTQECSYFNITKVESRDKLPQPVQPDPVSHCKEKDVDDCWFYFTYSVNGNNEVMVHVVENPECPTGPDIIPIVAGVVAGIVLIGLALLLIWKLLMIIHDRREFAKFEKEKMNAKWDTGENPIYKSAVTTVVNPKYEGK
Protocol: (§1) Function-blocking experiments using monoclonal antibodies against various integrin subunits were carried out to examine whether α3β1 integrin, known as a surface receptor of βig-h3, would be involved in the cell adhesion mediated by the synthetic peptides EPDIM and NKDIL. HCE was preincubated at 37° C. for 30 min in the presence of each of the monoclonal antibodies (5 μg/ml) against different types of integrins. The preincubated cells were transferred onto plates precoated with 100 μM EPDIM or 100 μM NKDIL and then incubated further at 37° C. for 1 hour, followed by the quantitative analysis with hexosaminidase substrate as in Example 1-2.

α3β1 integrin [2] = target: T1, α3β1 integrin; assay: HCE cell adhesion and adhesion inhibition assays
Protocol: as §1

Binder | binding result (α3β1 integrin [1]) | binding result (α3β1 integrin [2])
B1 | binds | –
B2 | – | binds
